For experiment [1], the target named is T1, B7-H3 on CHO-K1 cells stably transfected with B7-H3 (GenScript #M00536) (UniProt Q5ZPR3 29-534, limits assumed).
T1 sequence (looked up): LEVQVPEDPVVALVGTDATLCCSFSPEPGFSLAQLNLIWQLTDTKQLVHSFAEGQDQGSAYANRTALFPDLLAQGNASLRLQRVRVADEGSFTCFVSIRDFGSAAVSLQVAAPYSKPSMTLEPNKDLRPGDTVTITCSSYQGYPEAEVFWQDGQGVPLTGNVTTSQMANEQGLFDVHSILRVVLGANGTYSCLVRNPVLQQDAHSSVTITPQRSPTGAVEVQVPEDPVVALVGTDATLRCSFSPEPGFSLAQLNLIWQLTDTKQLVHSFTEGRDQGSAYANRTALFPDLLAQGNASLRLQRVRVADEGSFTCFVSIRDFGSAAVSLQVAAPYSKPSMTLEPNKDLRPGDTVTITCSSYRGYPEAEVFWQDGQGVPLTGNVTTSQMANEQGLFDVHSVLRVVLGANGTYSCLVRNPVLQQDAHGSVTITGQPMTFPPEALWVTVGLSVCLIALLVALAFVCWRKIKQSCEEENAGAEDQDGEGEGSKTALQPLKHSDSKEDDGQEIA
Nature of the experiment: cell-based or functional assay.

The target of experiment [2] is T2, his-tagged B7-H3 (UniProt Q5ZPR3-2 29-245, limits assumed).
T2 construct: also called CD276; not shown: His tag
T2 sequence (looked up): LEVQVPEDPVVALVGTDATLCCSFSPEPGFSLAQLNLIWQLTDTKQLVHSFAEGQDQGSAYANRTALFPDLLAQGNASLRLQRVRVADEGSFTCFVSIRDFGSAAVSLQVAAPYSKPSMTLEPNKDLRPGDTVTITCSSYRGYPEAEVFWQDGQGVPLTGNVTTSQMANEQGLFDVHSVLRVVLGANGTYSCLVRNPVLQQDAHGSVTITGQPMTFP
Nature of the experiment: SPR, Carterra LSA; binder captured by anti-human Fc, his-tagged B7-H3 injected. The procedure: Binding affinities of anti-B7-H3 antibodies to B7-H3 were measured by Surface Plasmon Resonance (SPR) on a Carterra LSA instrument. Goat anti-human Fc antibody was amine coupled to a HC30M chip. ScFv-Fc supernatants were diluted 30-fold with HBSTE and were captured by the anti-human Fc coupled HC30M chip. A 1:2 dilution series of his-tagged B7-H3, starting at 400 nM, was injected onto the chip for binding. Data was analyzed using the Carterra TM Kinetics software.

B1: 40633p1.2.E5 IgG (antibody, V domains shown)
VH: EVQLLESGGGLVQPGGSLRLSCAASGFTFDGYGMSWVRQAPGKGLEWVSAISGNSGSIYYADSVKGRFTISRDNSKNTLYLQMNSLRAEDTAAYYCAKEKWKHFIYYGMDVWGQGTTVTVSS
VL: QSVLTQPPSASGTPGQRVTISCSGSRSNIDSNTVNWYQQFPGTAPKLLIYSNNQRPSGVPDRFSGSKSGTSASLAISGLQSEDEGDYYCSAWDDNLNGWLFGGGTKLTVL
With B1, in experiment [1], the “ADCC reporter assay, EC50 Value, CHOK1/B7-H3 cells” value (“ADCC reporter assay, EC50 Value” for short) is 0.0268 µg/mL and the “ADCC reporter assay, Max RLU, CHOK1/B7-H3 cells” value (from here on “ADCC reporter assay, Max RLU”) amounted to 669000 RLU.

B2: 40633p1.2.D1 scFv-Fc (scFv, V domains shown)
VH: EVQLLESGGGLVQPGGSLRLSCAASGFTFDVYGMSWVRQAPGKGLEWVSAINWNGGSTYYADSVKGRFTISRDNSENTLYLQMNSLRAEDTAVYYCAKEKWKHFIYYGMDVWGQGTTVTVSS
VL: QSVLTQPASASGTPGQTVSISCSGSSSNIDSNTANWYQQLPGTAPKLLIYSNNQRPSGVPDRFSGSKSDTSASLAISGLQSEDEGDYYCSAWDDNLNGWLFGGGTKLTVL
notes: Tested as scFv-Fc supernatant
In the case of B2, in experiment [2], the affinity, expressed as Kd, was 39.8 nM; the off-rate (koff) (usually a measure of how fast the partners let go of each other) was 0.02 s⁻¹; the kon (usually the second-order rate constant of association) turned out to be 392000 M⁻¹ s⁻¹.

B3: 40633p1.2.E5 scFv-Fc (scFv, V domains shown)
VH: EVQLLESGGGLVQPGGSLRLSCAASGFTFDGYGMSWVRQAPGKGLEWVSAISGNSGSIYYADSVKGRFTISRDNSKNTLYLQMNSLRAEDTAAYYCAKEKWKHFIYYGMDVWGQGTTVTVSS
VL: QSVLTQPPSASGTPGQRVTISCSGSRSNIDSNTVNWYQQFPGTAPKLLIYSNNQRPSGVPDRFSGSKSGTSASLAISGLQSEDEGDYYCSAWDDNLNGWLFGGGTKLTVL
notes: Tested as scFv-Fc supernatant
For B3, in experiment [2], the Kd (in general, the concentration at which binding is half-saturated) is 40.2 nM; the koff worked out at 0.02 s⁻¹; the kon worked out at 389000 M⁻¹ s⁻¹.

B4: 40633p1.2.E1 IgG (antibody, V domains shown)
VH: EVQLLESGRGLVQPGGSLRLSCAASGFTVSYYGMSWVRQAPGKGLEWVSVIKQDGSEEYYADSVKGRFTISRDNSKNTLYLQMNSLRAEDTAVYYCARHWNDYSNGMNVWGQGTTVTVSS
VL: QSVLTQPPSASGTPGQRVTISCSGSTSNVGDRYVYWYQQLPGTAPKLLIYLDDQRPSGVPDRFSGSKSGTSASLAISGLQSEDEADYYCASWDASLNGWVFGGGTKLTVL
Take B4: in experiment [1], the “ADCC reporter assay, EC50 Value” value worked out at 0.031 µg/mL and the “ADCC reporter assay, Max RLU” value came to 725000 RLU.

B5: 40633p1.2.D11 scFv-Fc (scFv, V domains shown)
VH: EVQLESGGGLVQPGGSLRLSCAASGFTVSYYGMSWVRQAPGKGLEWVSAIKQDGSEKYYADSVKGRFTISRDNSKNTLYLQMNSLRAEDTAVYYCARHWNDYSNAMNVWGQGTTVTVSS
VL: QSVLTQPPSASGTPGQRVTISCSGSTSNIAIDFVNWYQQLPGTAPKLLIYTIDQRPSGVPDRFSGSKSGTSASLAISGLQSEDEAVYYCASWDASLNGWVFGRGTKLTVL
notes: Tested as scFv-Fc supernatant
In experiment [2], B5 had a Kd of 307 nM, a koff of 0.07 s⁻¹ and an on-rate (kon) of 241000 M⁻¹ s⁻¹.

B6: 40633p1.1.G5 scFv-Fc (scFv, V domains shown)
VH: EVQLLESGGGLVQPGGSLRLSCAASGFIVNYYGMSWVRQPPGKGLEWVSAIKQDGSEKYYADSVKGRFTISRDNSKTTLYLQMNSLRAEDTAVYYCARHWNDYSNGMNVWGQGTTVTVSS
VL: QSVLTQPPSASGTPGQRVTISCSGSWSNIGSYNSHWYQKLPGTAPKLLIYTTDRRPSGVPDRFSGSKSGTSASLAISGLQSEDEADYYCGTWDDSLNVWVFGGGTKLTVL
notes: Tested as scFv-Fc supernatant
In experiment [2], B6 yielded a Kd of 437 nM, a koff of 0.06 s⁻¹ and a kon of 141000 M⁻¹ s⁻¹.

B7: 40633p1.1.F2 scFv-Fc (scFv, V domains shown)
VH: EVQLLESGGGLVQPGGSLRLSCVASGLTFNGFAMTWVRQAPGKGLEWVSGISWNSGSIYYADSVKGRFTISRDNSKNTVYLQMSSLRAEDTAIYYCAKNWNDYYNSMDVWGQGTTVTVSS
VL: QSVLTQPPSASGTPGQRVTISCSGSRSNIGTKYVYWYQQFPGTAPKLLIYTTDRRPSGVPDRFSGSKSGTSASLAISGLQSEDEADYYCSAWDDRLNAWVFGGGTKLTVL
notes: Tested as scFv-Fc supernatant
In experiment [2], B7 yielded a dissociation constant (Kd) of 298 nM, a dissociation rate constant (koff) of 0.03 s⁻¹ and a kon of 108000 M⁻¹ s⁻¹.

B8: 40633p1.1.G10 scFv-Fc (scFv, V domains shown)
VH: EVQLLESGGGLVEPGGSLRLSCAASGFSFSSYGMHWVRQAPGKGLDWVAVINGEGSGTYYADSVKGRFTISRDNSKSTLYLQMNSLRAEDTAVYYCTKYYYNYAMDVWGQGTTVTVSS
VL: QSVLTQPPSASGTPGQRVTISCSGSRTDIGTTSVNWYQQLPGTAPKLLIYQSHQRPSGVPDRFSGSKSGTSASLAISGLQSEDEADYYCASWDASQNTWVFGGGTKLTVL
In experiment [2], B8 had a Kd of 0.248 nM and a kon of 349000 M⁻¹ s⁻¹.

B9: 40633p1.2.A8 scFv-Fc (scFv, V domains shown)
VH: EVQLLESGGGLLQPGGSLRLSCAASGFSFSSYGMHWVRQAPGKGLEWVAAINSDGSRIYYADSVKGRFTISRDNSKNTLYLQMNSLRAEDTAVYYCTKYYYHYAMDVWGQGTTVTVSS
VL: QSVLTQPPSASGTPGQRVTISCSGSRSDIGATTVNWYQQLPGTAPKLLIYQSHLRPSGVPDRFSGSKSGTSASLAISGLQSEDEADYYCASWDASLNTWVFGGGTKLTVL
In the case of B9, in experiment [2], the Kd amounted to 12.5 nM and the on-rate constant (kon) was determined as 304000 M⁻¹ s⁻¹.

B10: 40633p1.2.G9 scFv-Fc (scFv, V domains shown)
VH: EVQLLESGGGLLQPGGSLRLSCAASGFSFSSYGMHWVRQAPGKGLEWVAAINSDGSRIYYADSVEGRFTISRDNSKNTLYLQMNSLRAEDTAVYYCTKYYYHYAMDVWGQGTTVTVSS
VL: QSVLTQPPSASGTPGQRVTISCSGSRSDIGATTVNWYQQLPGTAPKLLIYQSHLRPSGVPDRFSGSKSGTSASLAISGLQSEDEADYYCASWDASLNTWVFGGGTKLTVL
In the case of B10, in experiment [2], the Kd came to 10.8 nM and the kon was found to be 325000 M⁻¹ s⁻¹.

B11: 40633p1.1.G7 scFv-Fc (scFv, V domains shown)
VH: EVQLLESGGGLVQPGGSLRLSCAASGFTFSGSAMNWVRQAPGKGLEWVSAINSGGTTIYYADSVKGRFTVSRDNSKNTLYLQMNSLRAEDTAVYYCVKLDFYYGMDVWGEGTTVTVSS
VL: QSVVTQPPSASGTPGQRVTVSCSGSSSNVGSKYVQWYQQLPGTAPKLLIYATDRRPSGVPDRFSGSKSGTSASLAISGLQSEDEADYYCASWDDSLNAWVFGGGTKLTVL
notes: Tested as scFv-Fc supernatant
On to B11, for which, in experiment [2], binding was characterised by a dissociation constant (Kd) of 0.113 nM and the kon stood at 411000 M⁻¹ s⁻¹.

B12: 40633p1.2.E11 scFv-Fc (scFv, V domains shown)
VH: EVQLLESGGGLVQPGGSLRLSCAASGFSFSNYDMSWVRQAPGKGLEWVAGIRSGSRTYYADSVKGRFTISRDNSKNTLYLQMNSLRAEDTATYYCGRYFNMDVWGQGTTVTVSS
VL: QSVLTQPPSASGTPGQRVTISCSGSTFNIGTNLVHWYQQLPGTAPKLLIYLTDRRPPGVPDRFSGSKSGTSASLAISGLQSEDEANYYCATWDDSLNSFLFGGGTKLTVL
In experiment [2], B12 showed a Kd of 1.11 nM and a kon of 134000 M⁻¹ s⁻¹.

B13: 40633p1.1.H11 scFv-Fc (scFv, V domains shown)
VH: EVQLLESGGGLVQPGGSLRLSCAASGFTFSSYPMTWVRQAPGKGLEWVADINSGGGTTLYADAVKGRFTISRDNSKNIVYLQMNSLRGEDTAVYYCAKHLDYYSYGMDVWGQGTTVTVSS
VL: QSVLTQPPSASGTPGQRVTISCSGVTSKIGSKYVHWYQQLPGTAPKLLIYRNFERPSGVPDRFSGSTSGTSASLAISGLQSEDEADYYCATWEGALNGWVFGGGTKLTVL
notes: Tested as scFv-Fc supernatant
In experiment [2], B13 had a Kd of 0.175 nM and a kon of 113000 M⁻¹ s⁻¹.

B14: 40511p1.1.D6 IgG (antibody, V domains shown)
VH: DVQLVESGGGVVRPGESLTLSCAASGFTINSYAVSWVRQAPGEGLEWVSGISGSGVRYYADSVKGRFTISRDNSNNTLYLQMNSLRAEDTAVYYCARSNKVTWNNFFDYWGLGTLVTVSS
VL: EVVLTQSPGTLTLSPGERATLSCRASRSILTSLAWYQQKPGQAPRLLIYNTVTRATGIPARFSGSGSGTEFTLTINSLQSEDFAVYYCQQYYDWPPLTFGGGTKVEIK
Take B14: in experiment [1], the “ADCC reporter assay, EC50 Value” value worked out at 0.014 µg/mL and the “ADCC reporter assay, Max RLU” value came out at 751000 RLU.

B15: Benchmark MGA-271 (antibody, V domains shown)
VH: EVQLVESGGGLVQPGGSLRLSCAASGFTFSSFGMHWVRQAPGKGLEWVAYISSDSSAIYYADTVKGRFTISRDNAKNSLYLQMNSLRDEDTAVYYCGRGRENIYYGSRLDYWGQGTTVTVSS
VL: DIQLTQSPSFLSASVGDRVTITCKASQNVDTNVAWYQQKPGKAPKALIYSASYRYSGVPSRFSGSGSGTDFTLTISSLQPEDFATYYCQQYNNYPFTFGQGTKLEIK
As for B15, in experiment [2], the Kd was determined as 164 nM, the dissociation rate constant (koff) was 0.01 s⁻¹ and the on-rate constant (kon) was 72000 M⁻¹ s⁻¹.

B16: 40633p1.1.E6 scFv-Fc (scFv, V domains shown)
VH: EVQLLESGGGLVQPGGSLRLSCAASGLTFSSYAMNWVRQAPGKGLEWVAGIGGSGSSTYHTDSVKGRFTISRDNSKNTLYLQMSSLRAEDAAVYYCAKEDHWSGGMDVWGQGTTVTVSS
VL: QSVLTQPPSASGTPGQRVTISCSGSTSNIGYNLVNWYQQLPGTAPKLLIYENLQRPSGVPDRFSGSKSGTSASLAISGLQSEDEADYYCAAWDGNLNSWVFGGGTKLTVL
On to B16, for which, in experiment [2], binding was characterised by a dissociation constant (Kd) of 142 nM and the kon turned out to be 6880 M⁻¹ s⁻¹.

B17: 40633p1.1.G3 scFv-Fc (scFv, V domains shown)
VH: EVQLLESGGGLVQPGGSLRLSCAASGLTFSSYAMNWVRQAPGKGLEWVAGIGGSGSSTYHTDSVKGRFTISRDNSKNTLYLQMNSLRAEDAAVYYCAKEDHWSGGMDVWGQGTTVTVSS
VL: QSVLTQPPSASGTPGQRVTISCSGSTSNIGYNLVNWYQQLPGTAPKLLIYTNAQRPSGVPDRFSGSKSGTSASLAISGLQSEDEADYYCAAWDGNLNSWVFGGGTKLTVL
Regarding B17, in experiment [2], the Kd stood at 524 nM, the koff was 0.04 s⁻¹ and the kon was determined as 73300 M⁻¹ s⁻¹.

(Values after US20260008852A1 (CRYSTAL BIOSCIENCE, published 2026).)
